Laboratory results: PMC7064642

Target: importin-α/β carrier protein complex (α/β importin heterodimer)
Assay: MST; importin β labelled with Cy3; α/β importin heterodimers at equimolar 50 nM; MNT serially diluted from 1 µM (MNT_(N-EGF)) or 4 µM (MNT_(N-affibody), MNT_(C-EGF)); 20 mM HEPES pH 7.4, 110 mM KCl, 5 mM NaHCO3, 5 mM MgCl2, 0.1 mM CaCl2, 1 mM EGTA, 1 mM DTT; Monolith NT.115

Row | Substance | Kd
1 | EGF-6His-DTox-HMP-NLS modular nanotransporter (MNT_(N-EGF)) | 15.8 nM
2 | 6His-DTox-HMP-NLS-EGF modular nanotransporter (MNT_(C-EGF)) | 127 nM
